{"source": "ChEMBL document CHEMBL1137638", "about": "“TEM-158 (CMT-9), a new member of the CMT-type extended-spectrum beta-lactamases” (Antimicrob Agents Chemother, 2007)", "proteins": {"B1": {"name": "Beta lactamase TEM-152 (Escherichia coli), Q09Q13 (protein)", "chain": "MSIQHFRVALIPFFAAFCLPVFAHPETLVKVKDAEDQLGARVGYIELDLNSGKILESFRPEERFPMVSTFKVLLCGAVLSRVDAGQEQLGRRIHYSQNDLVEYSPVTEKHLTDGMTVRELCSAAITMSDNTAANLLLTTIGGPKELTAFLHNMGDHVTRLDHWEPELNEAIPNDERDTTMPAAMATTLRKLLTGELLTLASRQQLIDWMEADKVAGPLLRSALPAGWFIADKSGAGKRGSRGIIAALGPDGKPSRIVVIYTTGSQATMDERDRQIAEIGASLIKHW"}, "B2": {"name": "Beta-lactamase TEM-125 (Escherichia coli), Q6GWS8 (protein)", "chain": "B1 chain with F14L, V67L, H162S, W163R, K237E"}, "B3": {"name": "Beta-lactamase TEM (Escherichia coli), P62593 (protein)", "chain": "B1 chain with V67M, H162R, K237E, D272N"}, "B4": {"name": "CMT-type beta lactamase (Escherichia coli), A5HJU3 (protein)", "chain": "B1 chain with V67L, H162S, K237E"}}, "key": {"[1]": {"substrate": "CC(C)(O/N=C(\\C(=O)N[C@@H]1C(=O)N2C(C(=O)[O-])=C(C[n+]3ccccc3)CS[C@H]12)c1csc(N)n1)C(=O)O", "conditions": "Escherichia coli; DH5alpha CL1179"}, "[2]": {"substrate": "CC(C)(O/N=C(\\C(=O)N[C@@H]1C(=O)N2C(C(=O)[O-])=C(C[n+]3ccccc3)CS[C@H]12)c1csc(N)n1)C(=O)O", "conditions": "Escherichia coli; TO799"}, "[3]": {"substrate": "CC(=O)OCC1=C(C(=O)O)N2C(=O)[C@@H](NC(=O)Cc3cccs3)[C@H]2SC1", "assay": "(§1) Activity of Escherichia coli DH5alpha beta-lactamase TEM-1 by microacidimetric method"}, "[4]": {"substrate": "CC(C)(O/N=C(\\C(=O)N[C@@H]1C(=O)N2C(C(=O)[O-])=C(C[n+]3ccccc3)CS[C@H]12)c1csc(N)n1)C(=O)O", "assay": "as §1"}, "[5]": {"substrate": "CC1(C)S[C@@H]2[C@H](NC(=O)Cc3ccccc3)C(=O)N2[C@H]1C(=O)O", "assay": "as §1"}, "[6]": {"substrate": "CC1(C)S[C@@H]2[C@H](NC(=O)[C@H](C(=O)O)c3ccsc3)C(=O)N2[C@H]1C(=O)O", "assay": "as §1"}, "[7]": {"substrate": "CC1(C)S[C@@H]2[C@H](NC(=O)[C@H](N)c3ccc(O)cc3)C(=O)N2[C@H]1C(=O)O", "assay": "as §1"}, "[8]": {"substrate": "CCN1CCN(C(=O)N[C@@H](C(=O)N[C@@H]2C(=O)N3[C@@H]2SC(C)(C)[C@@H]3C(=O)O)c2ccccc2)C(=O)C1=O", "assay": "as §1"}, "[9]": {"substrate": "CO/N=C(\\C(=O)N[C@@H]1C(=O)N2C(C(=O)O)=C(COC(C)=O)CS[C@H]12)c1csc(N)n1", "assay": "as §1"}, "[10]": {"substrate": "CC(=O)OCC1=C(C(=O)O)N2C(=O)[C@@H](NC(=O)Cc3cccs3)[C@H]2SC1", "assay": "(§2) Activity of Escherichia coli DH5alpha beta-lactamase TEM-158 by microacidimetric method"}, "[11]": {"substrate": "CC(C)(O/N=C(\\C(=O)N[C@@H]1C(=O)N2C(C(=O)[O-])=C(C[n+]3ccccc3)CS[C@H]12)c1csc(N)n1)C(=O)O", "assay": "as §2"}, "[12]": {"substrate": "CC1(C)S[C@@H]2[C@H](NC(=O)Cc3ccccc3)C(=O)N2[C@H]1C(=O)O", "assay": "as §2"}, "[13]": {"substrate": "CC1(C)S[C@@H]2[C@H](NC(=O)[C@H](C(=O)O)c3ccsc3)C(=O)N2[C@H]1C(=O)O", "assay": "as §2"}, "[14]": {"substrate": "CC1(C)S[C@@H]2[C@H](NC(=O)[C@H](N)c3ccc(O)cc3)C(=O)N2[C@H]1C(=O)O", "assay": "as §2"}, "[15]": {"substrate": "CCN1CCN(C(=O)N[C@@H](C(=O)N[C@@H]2C(=O)N3[C@@H]2SC(C)(C)[C@@H]3C(=O)O)c2ccccc2)C(=O)C1=O", "assay": "as §2"}}, "note": "Numbering of substitutions follows the chain as printed.", "data": [{"protein": "B1", "values": [{"measurement": "kcat", "setting": "[1]", "result": 40, "unit": "s⁻¹"}]}, {"protein": "B2", "values": [{"measurement": "kcat", "setting": "[2]", "result": 3.7, "unit": "s⁻¹"}]}, {"protein": "B3", "values": [{"measurement": "kcat", "setting": "[3]", "result": 165, "unit": "s⁻¹"}, {"measurement": "kcat", "setting": "[4]", "result": "< 0.1", "unit": "s⁻¹"}, {"measurement": "Km", "setting": "[5]", "result": 34, "unit": "µM"}, {"measurement": "kcat", "setting": "[5]", "result": 1500, "unit": "s⁻¹"}, {"measurement": "Km", "setting": "[6]", "result": 36, "unit": "µM"}, {"measurement": "kcat", "setting": "[6]", "result": 135, "unit": "s⁻¹"}, {"measurement": "Km", "setting": "[7]", "result": 15, "unit": "µM"}, {"measurement": "kcat", "setting": "[7]", "result": 1120, "unit": "s⁻¹"}, {"measurement": "Km", "setting": "[8]", "result": 55, "unit": "µM"}, {"measurement": "kcat", "setting": "[8]", "result": 1250, "unit": "s⁻¹"}, {"measurement": "kcat", "setting": "[9]", "result": "< 0.1", "unit": "s⁻¹"}]}, {"protein": "B4", "values": [{"measurement": "Km", "setting": "[10]", "result": 170, "unit": "µM"}, {"measurement": "kcat", "setting": "[10]", "result": 0.26, "unit": "s⁻¹"}, {"measurement": "kcat", "setting": "[11]", "result": 1.7, "unit": "s⁻¹"}, {"measurement": "Km", "setting": "[12]", "result": 38.1, "unit": "µM"}, {"measurement": "kcat", "setting": "[12]", "result": 18.5, "unit": "s⁻¹"}, {"measurement": "Km", "setting": "[13]", "result": 143, "unit": "µM"}, {"measurement": "kcat", "setting": "[13]", "result": 4.2, "unit": "s⁻¹"}, {"measurement": "Km", "setting": "[14]", "result": 24.8, "unit": "µM"}, {"measurement": "kcat", "setting": "[14]", "result": 14.4, "unit": "s⁻¹"}, {"measurement": "Km", "setting": "[15]", "result": 46, "unit": "µM"}, {"measurement": "kcat", "setting": "[15]", "result": 17.1, "unit": "s⁻¹"}]}]}
